Measurements published in patent US12173330B2, “Method for producing hydroxy-L-pipecolic acid” (API CORPORATION, priority 2015, dated 2024).
Positions count from the first letter of the chain named. Numbers in names are those of the source.

B1: McPH: amino acid hydroxylase from Micromonospora chokoriensis, GenBank WP_030487089, SEQ ID NO: 2 (protein, listed as Micromonospora chokoriensis)
chain: MRTHFVGEVALDLARLEADLATCRSLEWSEAYSDYVFGGSWKSCMLWAPGGDAGDGVVTDYAYDRSAGFTPHAERLPYLAELIRETADLDRLNFARLALVTNSVIIPHRDLLELSDLPDEARNEHRMHIPLATNDNCFFNEDNVVYRMRRGEVWFLDASRIHSVAVLTAQPRIHLMLDFVDTPGAGSFTRVAGGGVEAGIPVDRIVTRPPLGDDERADLFGVAPLLSMDTFDEVFSIVIKKHFRRDGGSDFVWDTMLELAAKSPDPAVLPHTEELRKHYTLDRSA
B2: McPHm11: McPH triple mutant F5Y, C23A, D282E; SEQ ID NO: 20 (protein, listed as Micromonospora chokoriensis)
chain: B1 chain with F5Y, C23A, D282E
B3: CaPH: L-proline cis-4-hydroxylase from Catenulispora acidiphila NBRC102108, GenBank WP_012787640, SEQ ID NO: 6 (protein, listed as Catenulispora acidiphila)
chain: MRTQYVAALELDEGRLAKDLETSASFNYSEAYSNYLIGGPWKSAMLYSAGGDAGDGLLTDYDYRQSSDFTDYGRQMPYLQELISTSVDLSRLTFVRLARFAKSVIVPHRDFLELEEIPEDKRSAHRLHIPLATHEECFFSEDNVVYRMRAGELWYFDASRIHSVVSFAEEPRIHLIFDFADRPGAGSLVTVPGEPEGAGVPAASAVDRPQLSDAERAALARLADVLTMDTFSEIFSVLVKKHFRRDGGEHFVWDTLTALARACPDPAVLPHTQELRRYFTLERPSGSGQA

Legend:
[1] = 5-hydroxy-L-pipecolic acid-producing activity of McPH mutants (Example 6); type: biochemical; details: for Relative activity (5-hydroxy-L-pipecolic acid-producing activity, wild type = 100): Table 10, double and triple mutants
Source text: Each of the obtained plasmids was used to transform E. coli (Eschelichia coli) BL21 (DE3) (manufactured by Invitrogen) according to a conventional method and thus to obtain recombinant E. coli strains expressing the respective mutants.
Furthermore, the combination effect of the respective mutations was examined in the mutations corresponding to McPHm2, McPHm3, and McPHm9, each of which was effective to improve the activity. A plasmid expressing a double mutant (McPHm10) with substitutions of phenylalanine to tyrosine at position 5 and cysteine to alanine at position 23, and a plasmid expressing a triple mutant, which is derived from the double mutant and further has a substitution of aspartic acid to glutamic acid at position 282, were constructed. Then, recombinant E. coli strains were produced according to the method described above, and the resulting enzyme solutions were used to evaluate the 5-hydroxy-L-pipecolic acid-producing activity.

[2] = Catalytic efficiency (kcat/Km) of L-pipecolic acid hydroxylases with L-proline (Example 3); type: biochemical; details: for hydroxy-L-proline detected from the reaction solution: L-proline as substrate, Example 3, in words
Method: Each of the obtained recombinant E. coli strains in a volume of 0.6 mL was recovered by centrifugation and was suspended in 0.5 mL of 50 mmol/L MES (2-morpholinoethanesulfonic acid) buffer at pH 6. The container containing the suspension was placed in ice-water bath to perform sonication and then spun at 12,000 rpm. The obtained supernatant was used as an enzyme solution in Example 3.
Subsequently, 0.05 mL of 1 mol/L hydrochloric acid was added to stop the reaction.
The reaction using L-proline as a substrate was carried out under the same conditions as in the above reaction using L-pipecolic acid.
Then, each reaction solution was treated using 1-fluoro-2,4-dinitrophenyl-5-L-alaninamide (FDAA) (manufactured by Tokyo Chemical Industry Co., Ltd.) according to a method as described below, to obtain a FDAA-derivative of a hydroxy-L-pipecolic acid or hydroxy-L-proline included in each reaction solution.
To the reaction solution after stopping the reaction, 0.05 mL of 1 mol/L sodium hydroxide was added for neutralization. After centrifuging the solution at 12,000 rpm, 15 μL of 0.5 mol/L borate buffer (pH 9) was added to 15 μL of the obtained supernatant, followed by further addition of 30 μL of 20 mmol/L FDAA solution in acetone and incubation at 40° C. for one hour. Subsequently, 10 μL of 1 mol/L hydrochloric acid was added to stop the derivatization reaction. The resulting solution was diluted by adding 80 μL of methanol, and then centrifuged at 12,000 rpm. The obtained supernatant was used as a FDAA derivative solution.
The amount of produced hydroxy-L-pipecolic acid or hydroxy-L-proline was analyzed with UPLC-MS (manufactured by Waters Co.).
An aliquot containing 5 μg of total protein was taken from each enzyme solution obtained in Example 2, loaded on each lane, and then electrophoresed on polyacrylamide gel. The obtained electrophoretogram was analyzed using the image analysis software Image Lab3.0 (manufactured by Bio-Rad Laboratories, Inc.) to determine the content of each hydroxylase. A carbonic anhydrase (manufactured by Sigma-Aldrich Co. LLC) was used as a quantification reference. The content of a hydroxylase of interest was calculated from the signal intensity of the enzyme of interest, based on the signal intensities of bands corresponding to 200 ng, 400 ng and 600 ng of the quantification reference provided for the electrophoresis.
The catalytic efficiency of each enzyme was calculated based on the Michaelis-Menten kinetic equation.
It is known that, in FIG. 1, the reciprocal of each intercept with the x-axis, multiplied with −1, represents a km value (mmol/L) and the reciprocal of each intercept with the y-axis represents a Vmax value (U/mg), the maximum rate of reaction.
The catalytic ability per molecule of the enzyme (kcat) can be calculated from the Vmax and the molecular weight of the enzyme. Table 5 indicates the result of the calculation of catalytic efficiency (kcat/km), which is an index representing the catalytic ability of an enzyme, based on the obtained kcat and km values.

[3] = Production of hydroxy-L-pipecolic acids by culture of recombinant E. coli expressing the hydroxylase (Example 5); type: cell-based, E. coli BL21 (DE3); details: for Accumulation of (4S)-hydroxy-L-proline: 120 hours; for Accumulation amount of (4S)-hydroxy-L-proline / Accumulation amount of (5S)-Hydroxy-L-pipecolic acid / Accumulation amount of L-pipecolic acid: after 120 hours, 20 mmol/L L-pipecolic acid in medium, 30° C.
[4] = Reactivity comparison of L-pipecolic acid 5-hydroxylases, substrate L-pipecolic acid (Example 4); details: 10 mmol/L substrate, 30° C., 30 minutes; hydroxy-L-pipecolic acid-producing activity set to 100
Method: (§1) The detection of the products was based on the absorbance at a wavelength of 340 nm.
(§2) The activity values were evaluated by the amount of a product per gram of total protein (U/g-protein).

[5] = Reactivity comparison of L-pipecolic acid 5-hydroxylases, substrate L-proline (Example 4); details: for Relative activity, Substrate: L-proline (hydroxy-L-proline-producing activity, 100 = hydroxy-L-pipecolic acid-producing activity): 10 mmol/L substrate, 30° C., 30 minutes; for hydroxy-L-proline detected from the reaction solution: Example 4, 10 mmol/L L-proline, in words
Method: as §1, §2

[6] = Hydroxylation activity of McPH mutants with L-proline as substrate (Example 6); type: biochemical; details: method of Example 4, in words
[7] = Catalytic efficiency (kcat/Km) of L-pipecolic acid hydroxylases with L-pipecolic acid (Example 3); type: biochemical; details: in words

Row | Molecule | Relative activity (5-hydroxy-L-pipecolic acid-producing activity, wild-type McPH = 100%) ([1]; Table 9, single mutants, U/g-protein basis, method of Example 4) | Relative activity (5-hydroxy-L-pipecolic acid-producing activity, wild type = 100) [1] | hydroxy-L-proline detected from the reaction solution [2] | Activity, Substrate: L-proline (cell spanning Km to kcat/Km) ([2]; in words) | Accumulation of (4S)-hydroxy-L-proline ([3]; in words) | Accumulation amount of (4S)-hydroxy-L-proline [3] | Accumulation amount of (5S)-Hydroxy-L-pipecolic acid [3] | Accumulation amount of L-pipecolic acid [3] | Conversion of the substrate to (5S)-hydroxy-L-pipecolic acid ([3]; incubation for 120 hours, in words) | Relative activity, Substrate: L-pipecolic acid [4] | Relative activity, Substrate: L-proline (hydroxy-L-proline-producing activity, 100 = hydroxy-L-pipecolic acid-producing activity) [5] | hydroxy-L-proline detected from the reaction solution [5] | Activity compared with that of the wild-type enzyme ([1]; in words) | Hydroxylation activity with L-proline as substrate [6] | Activity, Substrate: L-pipecolic acid (cell spanning Km to kcat/Km) [7]
1 | B1 | 100% | 100 | no hydroxy-L-proline was detected | (No activity ) | No accumulation of (4S)-hydroxy-L-proline was confirmed | 0 mmol/L | 23.5 mmol/L | 1.8 mmol/L | almost the entire amount of the substrate was allowed to convert to (5S)-hydroxy-L-pipecolic acid | 100% | 0% | No hydroxy-L-proline was detected |  |  | 
2 | B2 |  | 314 |  |  |  |  |  |  |  |  |  |  | three or more times higher | virtually no activity against proline | 
3 | B3 |  |  | much amount of hydroxy-L-proline was detected |  | no accumulation of (4S)-hydroxy-L-proline is confirmed | 0 mmol/L | 0.8 mmol/L | 18.8 mmol/L |  | 100% | 583% | much amount of hydroxy-L-proline was detected |  |  | (No activity )
